Data as given in patent US20260159607A1.

What was measured:
[1] = biological target: human DCLK1-CAR (on transduced T cells); test: flow cytometry of CAR-transduced T cells stained with biotinylated DCLK1 protein (FL2-H), gate 'stained'; controls: T cells 3.19% (small print 3.18%), mock 3.17%
[2] = biological target: mouse DCLK1-CAR (on transduced T cells); test: as above

Substance: Biotin-labeled DCLK1 (from UniProt O15075 1-740)
- % stained [1]: 2.73%
- % stained [2]: 11.6%
